The assay deals with human CD3 on Jurkat luciferase reporter T cells (human). As to the kind of experiment: cell-based or functional assay.

Substitutions are numbered along the chain they refer to.

B1: TR01H113-mF18/TR01L0011-mk1 (anti-CD3) (antibody, mouse IgG1, kappa)
heavy: QVQLVESGGGVVQPGGSLRLSCAASGFTFSNAWMHWVRQAPGKGLEWVAQIKDKSQNYATYVAESVKGRFTISRADSKNSIYLQMNSLKTEDTAVYYCRYVHYAAGYGVDIWGQGTTVTVSSAKTTPPSVYPLAPGSAAQTNSMVTLGCLVKGYFPEPVTVTWNSGSLSSGVHTFPAVLQSDLYTLSSSVTVPSSTWPSETVTCNVAHPASSTKVDKKIVPRDCGCKPCICTVKEVSKVFIFPPKPKDVLTITLTPKVTCVVVDISKDDPEVQFSWFVDDVEVHTAQTQPREEQFNSTFRSVSELPIMHQDWLNGKEFKCRVNSAAFPAPIEKTISKTKGRPKAPQVYTIPPPKEQMAKDKVSLTCMITDFFPEDITVEWQWNGQPAENYKNTQPIMDTDGSYFVYSKLNVQKSNWEAGNTFTCSVLHEGLHNHHTEKSLSHSPGK
light: DIVMTQSPLSLPVTPGEPASISCRSSQPLVHSNRNTYLHWYQQKPGQAPRLLIYKVSNRFSGVPDRFSGSGSGTDFTLKISRVEAEDVGVYYCGQGTQVPYTFGQGTKLEIKRADAAPTVSIFPPSSEQLTSGGASVVCFLNNFYPKDINVKWKIDGSERQNGVLNSWTDQDSKDSTYSMSSTLTLTKDEYERHNSYTCEATHKTSTSPIVKSFNRNEC
As for B1, the “relative fold induction of luciferase, Jurkat luciferase reporter T cells co-cultured with dead (MTX treated) Ba/F3 cells” value is ~20 fold and the “relative luciferase signal (fold induction, maximum), Jurkat luciferase reporter T cells co-cultured with live (untreated) Ba/F3 cells” value was ~22 fold.

B2: TR01H113-mF18.G3S2.mC9ECD57/TR01L0011-mk1 (anti-CD3-Clec9A ECD) (antibody, mouse IgG1, kappa)
heavy: QVQLVESGGGVVQPGGSLRLSCAASGFTFSNAWMHWVRQAPGKGLEWVAQIKDKSQNYATYVAESVKGRFTISRADSKNSIYLQMNSLKTEDTAVYYCRYVHYAAGYGVDIWGQGTTVTVSSAKTTPPSVYPLAPGSAAQTNSMVTLGCLVKGYFPEPVTVTWNSGSLSSGVHTFPAVLQSDLYTLSSSVTVPSSTWPSETVTCNVAHPASSTKVDKKIVPRDCGCKPCICTVKEVSKVFIFPPKPKDVLTITLTPKVTCVVVDISKDDPEVQFSWFVDDVEVHTAQTQPREEQFNSTFRSVSELPIMHQDWLNGKEFKCRVNSAAFPAPIEKTISKTKGRPKAPQVYTIPPPKEQMAKDKVSLTCMITDFFPEDITVEWQWNGQPAENYKNTQPIMDTDGSYFVYSKLNVQKSNWEAGNTFTCSVLHEGLHNHHTEKSLSHSPGKGGGSGGGSKFFQVSSLVLEQQERLIQQDTALVNLTQWQRKYTLEYCQALLQRSLHSGTDASTGPVLLTSPQMVPQTLDSKETGSDCSPCPHNWIQNGKSCYYVFERWEMWNISKKSCLKEGASLFQIDSKEEMEFISSIGKLKGGNKYWVGVFQDGISGSWFWEDGSSPLSDLLPAERQRSAGQICGYLKDSTLISDKCDSWKYFICEKKAFGSCI
light: B1 light
As to B2, the “relative luciferase activity (fold, maximum), Jurkat luciferase reporter T cells co-cultured with dead (MTX treated) Ba/F3 cells” value was ~54 fold and the “relative luciferase signal (fold induction), Jurkat luciferase reporter T cells co-cultured with live (untreated) Ba/F3 cells” value was ~5 fold.

B3: TR01H113-mF18.G3S2.mC9.131/TR01L0011-mk1 (anti-CD3-Clec9A CTLD) (antibody, mouse IgG1, kappa)
heavy: QVQLVESGGGVVQPGGSLRLSCAASGFTFSNAWMHWVRQAPGKGLEWVAQIKDKSQNYATYVAESVKGRFTISRADSKNSIYLQMNSLKTEDTAVYYCRYVHYAAGYGVDIWGQGTTVTVSSAKTTPPSVYPLAPGSAAQTNSMVTLGCLVKGYFPEPVTVTWNSGSLSSGVHTFPAVLQSDLYTLSSSVTVPSSTWPSETVTCNVAHPASSTKVDKKIVPRDCGCKPCICTVKEVSKVFIFPPKPKDVLTITLTPKVTCVVVDISKDDPEVQFSWFVDDVEVHTAQTQPREEQFNSTFRSVSELPIMHQDWLNGKEFKCRVNSAAFPAPIEKTISKTKGRPKAPQVYTIPPPKEQMAKDKVSLTCMITDFFPEDITVEWQWNGQPAENYKNTQPIMDTDGSYFVYSKLNVQKSNWEAGNTFTCSVLHEGLHNHHTEKSLSHSPGKGGGSGGGSGSDCSPCPHNWIQNGKSCYYVFERWEMWNISKKSCLKEGASLFQIDSKEEMEFISSIGKLKGGNKYWVGVFQDGISGSWFWEDGSSPLSDLLPAERQRSAGQICGYLKDSTLISDKCDSWKYFICEKKAFGSCI
light: B1 light
For B3, the “relative luciferase activity (fold, maximum), Jurkat luciferase reporter T cells co-cultured with dead (MTX treated) Ba/F3 cells” value is ~46 fold and the “relative luciferase signal (fold induction), Jurkat luciferase reporter T cells co-cultured with live (untreated) Ba/F3 cells” value was ~5 fold.

B4: TX_3G4VH-mBS1001b/3G4VL-mk1//TR01H113-mBS1001a/TR01L0011-mk1 (anti-PS(3G4)//CD3) (bispecific antibody, mouse IgG1, kappa)
heavy 1: EVQLQQSGPELEKPGASVKLSCKASGYSFTGYNMNWVKQSHGKSLEWIGHIDPYYGDTSYNQKFRGKATLTVDKSSSTAYMQLKSLTSEDSAVYYCVKGGYYGHWYFDVWGAGTTVTVSSAKTTPPSVYPLAPGSAAQTNSMVTLGCLVKGYFPEPVTVTWNSGSLSSGVHTFPAVLQSDLYTLSSSVTVPSSTWPSETVTCNVAHPASSTKVDKKIVPRDCGCKPCICTVKEVSKVFIFPPKPKDVLTITLTPKVTCVVVDISKDDPEVQFSWFVDDVEVHTAQTQPREEQFNSTFRSVSELPIMHQDWLNGKEFKCRVNSAAFPAPIEKTISKTKGRPKAPQVYTIPPPKEQMAKDKVSLTCMITDFFPEDITVEWQWNGQPAENYKNTQPIMRTDGSYFVYSKLNVQKSNWEAGNTFTCSVLHEGLHNHHTEKSLSHSPGK
light 1: DIQMTQSPSSLSASLGERVSLTCRASQDIGSSLNWLQQGPDGTIKRLIYATSSLDSGVPKRFSGSRSGSDYSLTISSLESEDFVDYYCLQYVSSPPTFGAGTKLELKRADAAPTVSIFPPSSEQLTSGGASVVCFLNNFYPKDINVKWKIDGSERQNGVLNSWTDQDSKDSTYSMSSTLTLTKDEYERHNSYTCEATHKTSTSPIVKSFNRNEC
heavy 2: B1 heavy with K408E
light 2: B1 light
Turning to B4, the “luciferase signal (fold induction) at 5 nM antibody, Jurkat reporter T cells co-cultured with dead Ba/F3 cells” value turned out to be 16 fold and the “luciferase signal (fold induction) at 25 nM antibody, Jurkat reporter T cells co-cultured with dead Ba/F3 cells” value turned out to be 70 fold.
